Experimental data from patent publication US20230167426.

Target: T1, AcrE2 (type I-E anti-CRISPR from Pseudomonas phage JBD88a)
T1 chain: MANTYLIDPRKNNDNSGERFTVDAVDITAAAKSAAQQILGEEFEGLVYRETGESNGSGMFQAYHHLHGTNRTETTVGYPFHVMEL

B1: 6×His-tagged NmeCas9 (Neisseria meningitidis Cas9) (protein)
chain: MAAFKPNSINYILGLDIGIASVGWAMVEIDEEENPIRLIDLGVRVFERAEVPKTGDSLAMARRLARSVRRLTRRRAHRLLRTRRLLKREGVLQAANFDENGLIKSLPNTPWQLRAAALDRKLTPLEWSAVLLHLIKHRGYLSQRKNEGETADKELGALLKGVAGNAHALQTGDFRTPAELALNKFEKESGHIRNQRSDYSHTFSRKDLQAELILLFEKQKEFGNPHVSGGLKEGIETLLMTQRPALSGDAVQKMLGHCTFEPAEPKAAKNTYTAERFIWLTKLNNLRILEQGSERPLTDTERATLMDEPYRKSKLTYAQARKLLGLEDTAFFKGLRYGKDNAEASTLMEMKAYHAISRALEKEGLKDKKSPLNLSPELQDEIGTAFSLFKTDEDITGRLKDRIQPEILEALLKHISFDKFVQISLKALRRIVPLMEQGKRYDEACAEIYGDHYGKKNTEEKIYLPPIPADEIRNPVVLRALSQARKVINGVVRRYGSPARIHIETAREVGKSFKDRKEIEKRQEENRKDREKAAAKFREYFPNFVGEPKSKDILKLRLYEQQHGKCLYSGKEINLGRLNEKGYVEIDHALPFSRTWDDSFNNKVLVLGSENQNKGNQTPYEYFNGKDNSREWQEFKARVETSRFPRSKKQRILLQKFDEDGFKERNLNDTRYVNRFLCQFVADRMRLTGKGKKRVFASNGQITNLLRGFWGLRKVRAENDRHHALDAVVVACSTVAMQQKITRFVRYKEMNAFDGKTIDKETGEVLHQKTHFPQPWEFFAQEVMIRVFGKPDGKPEFEEADTLEKLRTLLAEKLSSRPEAVHEYVTPLFVSRAPNRKMSGQGHMETVKSAKRLDEGVSVLRVPLTQLKLKDLEKMVNREREPKLYEALKARLEAHKDDPAKAFAEPFYKYDKAGNRTQQVKAVRVEQVQKTGVWVRNHNGIADNATMVRVDVFEKGDKYYLVPIYSWQVAKGILPDRAVVQGKDEEDWQLIDDSFNFKFSLHPNDLVEVITKKARMFGYFASCHRGTGNINIRIHDLDHKIGKNGILEGIGVKTALSFQKYQIDELGKEIRPCRLKKRPPVR
- in vitro DNA cleavage by NmeCas9: Cleavage was unaffected by prior incubation of NmeCas9 with increasing amounts of the control, type I-specific anti-CRISPR, AcrE2
